Laboratory results as given in patent publication US20220112288A1 (published 2022).
Where a chain is given by its changes, count along the chain named.

B1: 75110_10O16A (antibody, V domains shown)
VH: EVQLVESGGGLVQPGGSLRLSCAASGFTFSNSDMHWVRQATGKGLEWVSTIGTAGDTYYPGSVKGRFTISRENAKNSLYLQMNSLRAGDTAVYYCARGGLYYYGMDVWGQGTTVTVSS
VL: ENVLTQSPGTLSLSPGERATLSCRASQSVSSSYLAWYQQKPGQAPRLLIYGASSRATGIPDRFSGSGSGTDFTLTISRLEPEDFAVYYCHQFGSSPFTFGPGTKVDIK
notes: Non-clonal AlivaMab Mouse Kappa hybridoma supernatant, captured by anti-mouse IgG Fc (human V regions, mouse Fc); also called 75110_10016A
B2: 75110_04G02A (antibody, V domains shown)
VH: not shown
VL: DIVMTQSPDSLAVSLGERATINCKSSQSVLYSSNNKNYLAWYQQKPGQPPKLLFYWASARESGVPDRFSGSGSGTDFTLTISSLQAEDVALYYCQQYFGSFPTFGQGTKLEIK
notes: Tested as clonal hybridoma supernatant of an AlivaMab Mouse Kappa antibody (human variable regions, kappa; detected with anti-mouse Fc)
B3: 75110_04D20A (antibody, V domains shown)
VH: QVQLQESGPGLVKPSETLSLTCTVSNGSISDYYWSWIRQPAGKGLEWIGRIYTSGSTNYNPSLKSRITMSVDTSKNQFSLELSSVTAADTAVYYCARELERYYFYGVDVWGQGTTVTVSS
VL: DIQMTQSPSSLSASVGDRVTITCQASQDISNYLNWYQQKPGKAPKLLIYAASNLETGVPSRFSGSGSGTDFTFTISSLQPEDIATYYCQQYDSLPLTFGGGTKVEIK
notes: as for B2
B4: 75110_04P08A (antibody, V domains shown)
VH: QVQLQQWGAGLLKPSETLSLTCAVYGGSLSGYYWSWIRQSPGKGLEWIGEINQSGSTNYNPSLKSRVTISVDTSKDQFSLRLTSVTAADTAVYYCTRVLNWFDPWGRGTLVTVSS
VL: DIQMTQSPSSVSASVGDRVTLTCRASQDISNWLAWYQQKPGKAPKLLIYAASSLQSGVPSRFSGSGSGTDFTLTISSLQTEDFATYYCQQANSFPYTFGQGTKLEIK
notes: as for B2
B5: 75110_03L12A (antibody, V domains shown)
VH: QVQLQQWGAGLLKPSETLSLTCAVYGGSFSGYYWSWIRQPPGKGLEWIGEINHSGSTNYNPSLKSRVTISVDTSENQFSLTLISVTAADTAVYYCVRLINWFDPWGQGTLVTVSS
VL: B4 VL with L21I, Y49F, T80P, E81D, K103N, E105G
notes: as for B2
B6: 75110_04G16A (antibody, V domains shown)
VH: QVQLQESGPGLVKPSQTLSLTCTVSGDSISSGYYYWSWIRQHPGKGLEWIGYISYSGSTYYNPSLKSRLTISVNTSKNQFSLKLSSLTAADTAVYYCARDRPSNFDAFDIWGQGTMVTVSS
VL: B1 VL with N2I, S30G, S32T, S53F, H90Q, F92Y, F97L
notes: as for B2
B7: 75110_04F22A (antibody, V domains shown)
VH: B1 VH with N31S, S32Y, M34I, L100Y
VL: B1 VL with N2I, S30Y, H90Q, S94T
notes: as for B2
B8: 75110_04P06A (antibody, V domains shown)
VH: B1 VH with S32Y, L100D
VL: B1 VL with N2I, G9D, V29L, S32V, S77N, A85V, H90Q, F92Y
notes: as for B2
B9: 75110_05K11A (antibody, V domains shown)
VH: B1 VH with N31S, S32Y, A40P, G61A, L100F
VL: B1 VL with N2I, A19V, S31N, S32T, A85V, H90Q, F92H
notes: as for B2
B10: 75110_05F19A (antibody, V domains shown)
VH: B1 VH with S32Y, M34V, A40P, L100Y, Y101D, M105L
VL: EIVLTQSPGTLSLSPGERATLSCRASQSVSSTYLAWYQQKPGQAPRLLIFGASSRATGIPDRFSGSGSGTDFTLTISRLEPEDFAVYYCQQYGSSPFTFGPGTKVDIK
notes: as for B2
B11: 75110_04H17A (antibody, V domains shown)
VH: QVQLQESGPGLVKPSETLSLTCTVSGGSISTYYWSWIRQSAGKGLEWIGRIYTSERPNYNPSLKSRVTMSVDTSKNQFSLKLNSVSAADTAVYYCARELERPYYYGMDVWGQGTTVTVSS
VL: DVQMTQSPSSLSASVGGRVTITCQASQDISNYLNWYQQKPGKAPKLLIYYASNLETGVPSRFSGSGSGTDFTFTISSLQPEDFATYYCQQYDNLPLTFGGGTKVEIK
notes: as for B2
B12: 75110_03I23A (antibody, V domains shown)
VH: QVQLQESGPGLVKPSETLSLTCTASGGSITSYYWNWIRQPAGKGLEWIGRIYTSGSTNYNPSLKSRVTMSVDTSKNQFSLKLSSVTAADTAVYYCARDPGYSDAFNIWGQGTMVTVSS
VL: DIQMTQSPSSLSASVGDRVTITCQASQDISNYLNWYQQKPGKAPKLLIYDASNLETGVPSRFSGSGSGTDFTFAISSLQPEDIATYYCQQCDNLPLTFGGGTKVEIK
notes: as for B2
B13: 75110_04K10A (antibody, V domains shown)
VH: EVQLVESGGGLVQPGGSLRLSCAASGFTFSSYWMSWVRQAPGKGLEWVANINQDGSEKYYVDSVKGRFTISRDNAKNSLYLQLNSLRAEDTAMYYCAREGGQWLSLDYWGQGTLVTVSS
VL: DIQMTQSPSSVSASVGDRVTITCRASQGISSWLAWYQQKPGKAPKVLIYGVSSFQSGVPSRFSGSGSGTDFILTISSLQPEDFATYYCQQANSFPWTFGQGTKVEIK
notes: as for B2
B14: 75110_03I08A (antibody, V domains shown)
VH: QVQLQESGPGLVKPSETLSLTCTVSGGSISSYYWSWIRQPPGKGLEWIGYIYYSGSTNYNPSLKSRVTISVDTSKNQFSLKLSSVTAADTAVYYCAREGEQWFYGLDVWGQGTTVTVSS
VL: EIVLTQSPGTLSLSPGERATLSCRASQSVSSTYLAWYQQKPGQAPRLLIYGSSSRATGIPDRFSGSGSGTDFTLTISRLEPEDFAVYYCQQYGNSFPITFGQGTRLEIK
notes: as for B2
B15: 75110_04B08A (antibody, V domains shown)
VH: QVQLVESGGGVVQPGRSLRLSCTASGFNFINYGIHWVRQAPGKGLEWVTIIWYDGSKKYYADSVKGRFAISRDNSKNTLYLQMNSLRAEDTAVYYCAREDDWNDGLAYWGQGTLVTVSS
VL: AIQMTQSPSSLSASVGDRVTITCRASQDIRNDLGWYQQKPGKAPNLLIYAASNLQSGVPSRFSGSGSGTDFTLTISSLQPEDFATYYCLQDSNYPRTFGQGTKVEIK
notes: as for B2
B16: 75110_04P08A (antibody, V domains shown)
VH: B4 VH
VL: B4 VL
notes: Tested as antibody purified from AlivaMab Mouse hybridoma supernatant (captured by anti-mouse IgG Fc)
B17: 75110_05B13A (antibody, V domains shown)
VH: QVLLEQWGAGLLKPSETLSLTCAVYGGSFSGYYWTWIRQPPGKGLEWIGEINHRGSTNYNPSLKSRVTISIDTSKNQFSLKVKSVTAADTAMYYCTRPDSNWFDPWGQGTLVTVSS
VL: B4 VL with L21I, Y49F, T80P, Y96L, Q100G, L104V
notes: as for B16
B18: 75110_05E13A (antibody, V domains shown)
VH: EVQLVESGGDLVKPGGSLRLSCAASGFSFSNAWMSWVRQAPGKGLEWVGRVESKTDGGTTDYAAPVKDRFTISRDDSKYTLYLQMNSLKTEDSAVYYCTIGGGFGLELYGFFDYWGQGTLVTVSS
VL: DIQMTQSPSTLSASVGDRVTITCRASQSISSWLAWYQQKPGKAPMLLIYKASSLESGVPSRFSGSGSGTEFTLTISSLQPDDFATYYCLQYNSYYTFGQGTKLEIK
notes: as for B16
B19: 75110_05E05A (antibody, V domains shown)
VH: QVQLQESGPGLVKPSETLSLTCTVSGGSIGSYYWSWIRQPAGKGLEWIGRIYTSGSTNYNPSLKSRVTMSFDTSKNQFSLKLNSVTAADTAVYYCATDGGVGDSLDYWGQGTLVTVSS
VL: DIVMTQTPLSLPVTPGEPASISCRSSQSLLDSDDGNTYLDWYLQKPGQSPQLLIYTLSYRASGVPDRFSGSGSGTDFTLKISRVEAEDVGVYYCMQHIEFPFTFGPGTKVDIK
notes: as for B16
B20: 75110_14P08A (antibody, V domains shown)
VH: QVQLQESGPGLVKSSETLSLTCTDSGDSIRSYYWNWIRQPAGKGLEWIGRIYASGSTNYNPSLKSRVIMSADTSKNRFSLKLSSVTAADTAVYYCARDGGVGDSLDYWGQGTLVTVSS
VL: B19 VL with H97R
notes: Tested as non-clonal AlivaMab Mouse Kappa hybridoma supernatant, captured by anti-mouse IgG Fc sensor

target: T1, Recombinant human CD4 (R&D Systems, Cat. 10327-CD) (human, UniProt P01730 26-390, limits assumed); test: BLI (Octet Red384), non-clonal supernatant on AMC sensor, 100 nM human CD4, 1:1 local fit;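 also: hybridoma antibodies captured from supernatant, single CD4 concentration as analyte, association and dissociation phases fitted together, giving single-point kinetic estimates per supernatant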
T1 construct: Bought soluble recombinant protein used as analyte at 100 nM; also called huCD4

Binder | Kd [nM] | koff [s⁻¹] | kon [M⁻¹ s⁻¹]
B1 | < 0.001 | < 1e-07 | 64800

target: T2, human CD4 on human PBMCs (human, UniProt P01730 26-458); test: FACS, clonal hybridoma supernatant on PBMCs
T2 construct: whole, on cells; the CD4-positive gate was set with the control antibodies OKT4 and RPA-T4; also called hCD4

Binder | % CD4 Stain [%] | gMFI of CD4+ [gMFI]
B2 | 38.5 | 187000
B3 | 33.2 | 241000
B4 | 36.4 | 128000
B5 | 36.8 | 162000
B6 | 36.3 | 240000
B7 | 37.7 | 216000
B8 | 36.9 | 241000
B9 | 38.1 | 112000
B10 | 37.1 | 155000
B11 | 28.8 | 151000
B12 | 26.2 | 67900
B13 | 35.6 | 149000
B14 | 17.8 | 26100
B15 | 40.6 | 246000

target: T3, Rhesus macaque CD4-HIS (Acro Biosystems, Cat. CD4-C52H7) (rhesus macaque, UniProt P16003 26-390); test: BLI Octet, mAb on anti-mouse Fc sensor, rhesus CD4-HIS 25-100 nM, 1:1 global fit;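 also: purified antibodies captured at 10 µg/mL, rhesus CD4 analyte run as a three-concentration serial dilution, irrelevant antibody as reference control, one kinetic constant set per antibody from global fitting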
T3 construct: Bought reagent; also called Rhesus CD4; rhesus CD4-HIS; not shown: His tag
T3 sequence (P16003 26-390 limits assumed): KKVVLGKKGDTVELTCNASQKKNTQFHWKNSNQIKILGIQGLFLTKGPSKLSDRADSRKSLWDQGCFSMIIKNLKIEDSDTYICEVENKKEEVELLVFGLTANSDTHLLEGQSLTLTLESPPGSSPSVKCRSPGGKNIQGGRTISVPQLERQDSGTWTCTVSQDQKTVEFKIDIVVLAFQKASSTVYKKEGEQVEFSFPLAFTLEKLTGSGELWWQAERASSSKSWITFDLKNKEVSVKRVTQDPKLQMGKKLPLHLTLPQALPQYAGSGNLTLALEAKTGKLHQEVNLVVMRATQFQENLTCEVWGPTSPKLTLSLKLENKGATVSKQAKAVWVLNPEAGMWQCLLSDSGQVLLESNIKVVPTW

Binder | Kd [nM] | Response | koff [s⁻¹] | kon [M⁻¹ s⁻¹]
B16 | 60 | 0.12 | 0.0091 | 150000
B17 | 4.7 | 0.14 | 0.002 | 420000
B18 | 6.7 | 0.03 | 0.0079 | 1.2e+06
B19 | 2.3 | 0.06 | 4.9e-05 | 21000

target: T4, Recombinant human CD4 (R&D Systems, Cat. 10327-CD) (human, UniProt P01730 26-390, limits assumed); test: BLI Octet, non-clonal supernatant on AMC sensor, 100 nM human CD4, 1:1 local fit;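 also: Single-concentration kinetics per supernatant, with the 1:1 model fitted across both the association and dissociation phases of the sensorgram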
T4 construct: Bought reagent; also called huCD4

Binder | Kd [nM] | koff [s⁻¹] | kon [M⁻¹ s⁻¹]
B20 | 7.47 | 0.00134 | 179000
